This data set can be described thus: yeast display, Sf9 membrane polyspecificity reagent, FACS + sequencing; frameworks hold sequencing errors. The method, boiled down: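 After 36–48 hours of galactose induction, yeast (Saccharomyces cerevisiae BJ5465) displaying a synthetic nanobody library were stained at 4 °C for 1 hour with 10% biotinylated, detergent-solubilized Sf9 membrane reagent. Streptavidin microbeads enriched the stained cells before FACS sorting into low and high (top ~1%) gates on anti-HA and streptavidin fluorescence. Each clone's polyreactivity label reflects its gate of origin.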
Turning to “QVQLVESGGGLVQAGGSLRLSCAASGFTIYRYAMGWYRQAPGKERELVATIRRGGSTKYADSVKGRFTISRDNAKNTVYLQMNSLKPEDTAVYYCNARYYAAPDKYYYWGQGTQVTVSS”, the “polyreactivity (PSR sort gate)” value was “low polyreactivity”. The value for “QVQLVESGGGLVQAGGSLRLSCAASGFTIYYYTMGWYRQAHGKERELVAAITWRGGSTNYADSVKGRFTISRDNAKNTVYLQMNSLKPEDTAVYYCAAVTYWFWPGMDYWGQGTQVTVSS” was “low polyreactivity”; that for “QVQLVESGGGLVQAGGSLRLSCAASGFTLAGYDMGWSRQAPGKERELVATLSTYADSVKGRFTISRDNAKNTVYLQMNSLKPEDTAVYYCAKKYVWTHNYWGQGTQVTVSS” was “low polyreactivity”; that for “QVQLVESGGGLVQAGGSLRLSCAASGFTLARYAMGWYRQAPGKERELVAAITKRGGSTYYADSVKGRFTISRDNAKNTVYLQMNSLKPEDTAVYYCATYKRSSHYDYWGQGTQVTVSS” was “high polyreactivity”. As for “QVQLVESGGGLVQAGGSLRLSCAASGFTLARYAMGWYRQAPGKERELVAGITGGGSTYYADSVKGRFTISRDNAKNTVYLQMNSVKPEDTAVYYCNARTYWKSRLKQYNYWGQVTQVTVSS”, the “polyreactivity (PSR sort gate)” value was “high polyreactivity”.

Take “QVQLVESGGGLVQAGGSLRLSCAASGFTLAYNTMGWYRQAPGKERELVASITSSGTSTYYADSVKGRFTISRDNAKNTVYLQMNSLKPPDTAVYYCAASIWLRYHWGYDYWGQGTQVTVSS”: the “polyreactivity (PSR sort gate)” value is recorded as “high polyreactivity”.

As for “QVQLVESGGGLVQAGGSLRLSCAASGFTLDPYAMGWYRQAPGKERELVAAIRLSGSSTYYADSVKGRFTISRDNAKNTVYLQMNSLKPEDTAVYYCAADGISHWMYRYDYWGQGTQVTVSS”, the “polyreactivity (PSR sort gate)” value is “low polyreactivity”. Next, “QVQLVESGGGLVQAGGSLRLSCAASGFTLDWYVMGWYRQAPGKERELVAAISSSGGRTYYADSVKGRFTISRDNAKNTVYLQRNSLKPEDTAVYYCAARNKYGGYPYGYDYWGQGTQVTVSS”: “high polyreactivity”. The value for “QVQLVESGGGLVQAGGSLRLSCAASGFTLDWYVMGWYRQAPRKERELFAAISSSGGRTYYADSVKGRFTISRDNAKNSVYLQMNSLKPEDTAVYYCAAGTYYRVGRGRRVSFVYWGQGTQVTVSS” was “high polyreactivity”.

As for “QVQLVESGGGLVQAGGSLRLSCAASGFTLEFYAMVWYRQAPGKKRELVARITTYGGSTRYADSVKGRFTISRDNAKNTVYLKMNSLKPEDTAVYNCAARGYGYRNVETYGYWGQGTQVTVSS”, the “polyreactivity (PSR sort gate)” value is on record as “high polyreactivity”. The value for “QVQLVESGGGLVQAGGSLRLSCAASGFTLGCYAMGWYRQAPGKERELVAAITRDGSSTYYADSVKGRFTISRDNAKNTVYLQMNRLKPEDTAVYYCAAERKKKYDYWGQGTQVTVSS” was “high polyreactivity”; that for “QVQLVESGGGLVQAGGSLRLSCAASGFTLGRYAKGWYRQAPGKERELVAAISSGGRTYYADSVKGRFTISRDNAKNTVYLQMNSLKPEDTAVYYCAADPRYISYDYWGQGTQVTVSS” was “low polyreactivity”; that for “QVQLVESGGGLVQAGGSLRLSCAASGFTLGRYAMGWYRQAPGKERELVAAITGRGGTTYYADSVKGRFRISRDNAKNTVYLQMNSLKPEDTAVYYCAADTKLSYQWFDYWGQGTQVTVSS” was “high polyreactivity”. In the case of “QVQLVESGGGLVQAGGSLRLSCAASGFTLGYNAMGWYRQAPGKERQLVAGITWSGGSTSYADSVKGRFTISRDNAKNTVYLQMNSLKPEDTAVYYCAKLRRYSGWLPWPYAYDYWGLGTQVTVSS”, the “polyreactivity (PSR sort gate)” value is on record as “high polyreactivity”. Next, “QVQLVESGGGLVQAGGSLRLSCAASGFTLGYNVMGWYRQAPGKERELVATICWNGARTYYADSVKGRFTISRDTAKNTVYLQMNSLKPEDTAVYYCAARRYYRGEYDYWGQGTQVTVSS”: “low polyreactivity”. Next, “QVQLVESGGGLVQAGGSLRLSCAASGFTLGYYAMGWDRQAPGKERELVASISITAGSTYYAVSVMGRLTISRDNAKNTVYLQMNSLKPEDTAVYYCAAKRRTRQSYYTVYYWGQGTQVTVSS”: “high polyreactivity”.

“QVQLVESGGGLVQAGGSLRLSCAASGFTLHSYAMGWYRQAPWKERELVAAITRSGGGTYYADSVKGRFTISRDNAKNTVYLQMNSLKPEDTAVYYCAARFGGQYQHDYWGQGTQVTVSS”: the “polyreactivity (PSR sort gate)” value is “high polyreactivity”.

As to “QVQLVESGGGLVQAGGSLRLSCAASGFTLIYYAMGWYRQAPGKERELVAGISRGVSTSYADSVMGRFTISRDNAKNTVYLQMNSLKPEDTAVYYCAAEGSPVDQSSIYDYWGQGTQVTVSS”, the “polyreactivity (PSR sort gate)” value is on record as “low polyreactivity”. “QVQLVESGGGLVQAGGSLRLSCAASGFTLKSYAMGWYRQAPGKERELVASISRRGGSTYYADSVKGRFTISRDNAKNTVYLQMNSLKPEDTAVYYCNADYVRYPGNAYDYWGQGTQVTVSS”: the “polyreactivity (PSR sort gate)” value is given as “high polyreactivity”. The value for “QVQLVESGGGLVQAGGSLRLSCAASGFTLKWYAMGWYRQAPGKERELVAAINDRGGNTYYADSVKGRFTISRDNAKNTVYLQMNSLKPEDTAVYYCAVRGKTYRPYYYWGQGTQVTVSS” was “high polyreactivity”. The value for “QVQLVESGGGLVQAGGSLRLSCAASGFTLLGNTMGWSRQAPGKERELVAAIRTNSGRTYYADSVKGRFTISRDNAKNTVYLQMNSLKPEDTAVYYCNAQSYRSDSAYHYNYDYWGQGTQVTVSS” was “high polyreactivity”; that for “QVQLVESGGGLVQAGGSLRLSCAASGFTLLGNTMGWYRQAPGKERELVAAIRTNSGRTYYADSVKGRFTISRDNAKNTVYLQMNSLKPEDTAVYYCAKRYFSYLGREMDYWGQGTQVTVSS” was “high polyreactivity”; that for “QVQLVESGGGLVQAGGSLRLSCAASGFTLLPYAMGWYRQAPGKERELVAAISRRGVSTYYADSVKGRFTISRDNAKNTVYLQMNSLKPEDTAVYYCATRYFTGYGLRPQFYYWGQGSQVTVSS” was “high polyreactivity”. The value for “QVQLVESGGGLVQAGGSLRLSCAASGFTLRLNAMGWYRQAPGKARELVAAITRSGGNTYYADSVKGRFTISRDNAKNTVYLEMNSLKPEDSAVYYCAVRQLDRRSPKYNYWGQGTQVTVSS” was “high polyreactivity”.

On to “QVQLVESGGGLVQAGGSLRLSCAASGFTLSYYAMGWYRPAPGKEREFVAAIRTSGTSTYYADSVKGRFTISRDNAKNTVYLQMNSLKPEDTAVYYCAVARGSGWYWRSDYWGQGTQVTVSS”, for which the “polyreactivity (PSR sort gate)” value was “high polyreactivity”. Next, “QVQLVESGGGLVQAGGSLRLSCAASGFTLVYYVMGWYRQAPGKERELVARISRGGSTNYADSVKGRFTISRDNAKNTVYLQMNSLKPEDTAVYYCAARRTSWQGFNYWGQGTQVTVAS”: “high polyreactivity”. The value for “QVQLVESGGGLVQAGGSLRLSCAASGFTLYSNTMGWYRQAPGKERELVAAINYSGGSTYYADSVKGRFTISRDNAKNTVYLQMNSLKPQDTAVYYCATDLHWLVTKYGYWGQGTQVTVSS” was “low polyreactivity”; that for “QVQLVESGGGLVQAGGSLRLSCAASGFTRIYAMGWYRQAPGKERELVAAISQRGGRTYYADSVKGRFTISRDNAKNTVYLQMNSLKPEDTAVYYCNADRRSYNYPEYEYDYWGQGTQVTVSS” was “high polyreactivity”; that for “QVQLVESGGGLVQAGGSLRLSCAASGFTRVVSTMGWYRQAPGKERELVATISYTDGSTYYADAVKGRFTISRDNAKNTDYLQMTSLKPEDTADYYCNASYPSSSYSYHVDYWGQGTQVTVSS” was “low polyreactivity”. Turning to “QVQLVESGGGLVQAGGSLRLSCAASGFTSAPNAMGWYRQAPGKERELVAAITSSTGRTRYADSVKGRFTISRDNAKNTVYLQMNSLKPEDTAVYYCAVKLLFRGTYEYWGQGTQVTVSS”, the “polyreactivity (PSR sort gate)” value was “low polyreactivity”. With “QVQLVESGGGLVQAGGSLRLSCAASGFTSGRNTMGWYRQAPGKERELVAAISSSGGRTYYADSVKGRFTISRDNAKKTVYLQKHRLKAEDPAVYYCNVAGAIKRTIGDYEYWGQGTQVTVSS”, the “polyreactivity (PSR sort gate)” value was “high polyreactivity”. Take “QVQLVESGGGLVQAGGSLRLSCAASGFTSNYYAMGWYRQAPGKERELVAAITTGGSTHYADSVKGRFTISRDNAKNTVYLQMNSLKPEDTAVYYCAAGTNRQQQRYFHPGGYYQYNYWGQGSQVTVSS”: the “polyreactivity (PSR sort gate)” value was “low polyreactivity”. Regarding “QVQLVESGGGLVQAGGSLRLSCAASGFTSQYYAMGWYRQAPGKERELVAAITLRDGSTYYADSVKGRFTISRDNAKNTVYLQMNSMKPEDTAVYYCNTDATSDPYGFGYWGQGTQVTVSS”, the “polyreactivity (PSR sort gate)” value is “low polyreactivity”.

Turning to “QVQLVESGGGLVQAGGSLRLSCAASGFTSRKNAMGWYSQAPGKERELVAAITQSSGRTYYADSVKGRFTISRDNAKNTVYLQMNSLKPEDTAVYYCAARRGGEDDYWGQGTQVTVSS”, the “polyreactivity (PSR sort gate)” value is “low polyreactivity”. Next, “QVQLVESGGGLVQAGGSLRLSCAASGFTSWYAMGWYRQAPGKERELVAAISSGGSTNYADSVKGRFTISRDNAKNTVYLQLNSLKPEDTAVYYCNAEGYETGVPYFGFYFWGQGTQVTVSS”: “low polyreactivity”. The value for “QVQLVESGGGLVQAGGSLRLSCAASGFTSYLYTMGWYRQAPGKERELVATITLRGGSTYYADSVKGRFTISRDNAKNTVYLQMNSLKPEDTAVYYCAAPAYLTSHSRYDYWGQGTQVSVSS” was “high polyreactivity”; that for “QVQLVESGGGLVQAGGSLRLSCAASGFTVYSYPLGWYRQAPGKERELVAAITRSGGITYYADSVKGRFTISRDNAKNTVYLQMNSLKPEDTAVYYCNAYRGGLSSEHYYWGQGTQVTVSS” was “high polyreactivity”; that for “QVQLVESGGGLVQAGGSLRLSCAASGFTYFQYAMGWYRQAPGKERELVAAITSGVSTNYADSVKGRFTISRDNAKNTVYLQMNSLKPEDTAVYYCAADPRYLQSWRGEFAGEYWGQGTQVTVSS” was “low polyreactivity”. The value for “QVQLVESGGGLVQAGGSLRLSCAASGFTYFYAMGWYRQAPGKERELVATITINGGRTYYADSVKGRFTISRDNAKNTVYLQMNSLKPEDTAVYYCAAKSWYSYGDWGYYSWGQGTQVTVSS” was “high polyreactivity”; that for “QVQLVESGGGLVQAGGSLRLSCAASGFTYRTNAMGWYRQAPGKERELVAAISTGARTYYADSVKGRFTISRDNAKNTVYLQMNSLKPEDTAVYYCNKVLRRFLSRYDYWGQGTQVTVSS” was “high polyreactivity”; that for “QVQLVESGGGLVQAGGSLRLSCAASGFTYRTYAMGWYRQAPGKERELVAAITVSGGTYYADSVKGRFTISRDNAKNTVYFQMNSLKPEDTAVYYCTAKRFRTGFDYWGQGTQVTVSS” was “low polyreactivity”.

Values taken from the nanobody polyreactivity screen of Harvey et al. (2022).
